Test results: patent publication US20260265379A1

B1: bsAb060 (bispecific antibody)
heavy: QVQLVQSGVEVKKPGASVKVSCKASGYTFTNYYMYWVRQAPGQGLEWMGGINPSNGGTNFNEKFKNRVTLTTDSSTTTAYMELKSLQFDDTAVYYCARRDYRFDMGFDYWGQGTTVTVSSASTKGPSVFPLAPSSKSTSGGTAALGCLVKDYFPEPVTVSWNSGALTSGVHTFPAVLQSSGLYSLSSVVTVPSSSLGTQTYICNVNHKPSNTKVDKRVEPKSCDKTHTCPPCPAPEFEGGPSVFLFPPKPKDTLMISRTPEVTCVVVDVSHEDPEVKFNWYVDGVEVHNAKTKPREEQYNSTYRVVSVLTVLHQDWLNGKEYKCKVSNKALPASIEKTISKAKGQPREPQVYTLPPSREEMTKNQVSLTCLVKGFYPSDIAVEWESNGQPENNYKTTPPVLDSDGSFFLYSKLTVDKSRWQQGNVFSCSVMHEALHNHYTQKSLSLSPG
light: DIQMTQSPSSLSASVGDRVTITCHASQNINVWLSWYQQKPGKAPKLLIYKASNLHTGVPSRFTGSGSGTDFTFTISSLQPEDIATYYCQQGQTYPYTFGQGTKLEIKGGGGSGGGGSGGGGSGGGGSQVQLVQSGAEVKKPGASVKLSCKASGYIFTRYYMYWVKQRPGQGLEWIGEINPNNGGTKFNEKFKNRATLTVDKSISTAYMELSRLRSDDTAVYYCSREDDYDGTPFAMDYWGQGTLVTVSSGGGGSGGGGSGGGGSGGGGSEIVLTQSPATLSLSPGERATLSCRASKGVSTSGYSYLHWYQQKPGQAPRLLIYLASYLESGVPARFSGSGSGTDFTLTISSLEPEDFAVYYCQHSRDLPLTFGGGTKVEIKRTVAAPSVFIFPPSDEQLKSGTASVVCLLNNFYPREAKVQWKVDNALQSGNSQESVTEQDSKDSTYSLSSTLTLSKADYEKHKVYACEVTHQGLSSPVTKSFNRGEC
B2: bsAb011 (bispecific antibody)
heavy: QVQLVQSGAEVKKPGASVKLSCKASGYIFTRYYMYWVKQRPGQGLEWIGEINPNNGGTKFNEKFKNRATLTVDKSISTAYMELSRLRSDDTAVYYCSREDDYDGTPFAMDYWGQGTLVTVSSASTKGPSVFPLAPSSKSTSGGTAALGCLVKDYFPEPVTVSWNSGALTSGVHTFPAVLQSSGLYSLSSVVTVPSSSLGTQTYICNVNHKPSNTKVDKRVEPKSCDKTHTCPPCPAPEFEGGPSVFLFPPKPKDTLMISRTPEVTCVVVDVSHEDPEVKFNWYVDGVEVHNAKTKPREEQYNSTYRVVSVLTVLHQDWLNGKEYKCKVSNKALPASIEKTISKAKGQPREPQVYTLPPSREEMTKNQVSLTCLVKGFYPSDIAVEWESNGQPENNYKTTPPVLDSDGSFFLYSKLTVDKSRWQQGNVFSCSVMHEALHNHYTQKSLSLSPG
light: not shown
B3: bsAb003 (bispecific antibody, human IgG1, kappa)
heavy: QVQLVQSGAEVKKPGASVKLSCKASGYIFTRYYMYWVKQRPGQGLEWIGEINPNNGGTKFNEKFKNRATLTVDKSISTAYMELSRLRSDDTAVYYCSREDDYDGTPFAMDYWGQGTLVTVSSASTKGPSVFPLAPSSKSTSGGTAALGCLVKDYFPEPVTVSWNSGALTSGVHTFPAVLQSSGLYSLSSVVTVPSSSLGTQTYICNVNHKPSNTKVDKRVEPKSCDKTHTCPPCPAPEFEGGPSVFLFPPKPKDTLMISRTPEVTCVVVDVSHEDPEVKFNWYVDGVEVHNAKTKPREEQYNSTYRVVSVLTVLHQDWLNGKEYKCKVSNKALPASIEKTISKAKGQPREPQVYTLPPSREEMTKNQVSLTCLVKGFYPSDIAVEWESNGQPENNYKTTPPVLDSDGSFFLYSKLTVDKSRWQQGNVFSCSVMHEALHNHYTQKSLSLSPGGGGGSGGGGSGGGGSGGGGSEVQLVESGGGLVQPGGSLRLSCAASGFTFSRYWMSWVRQAPGKGLEWVANIKQDGSEKYYVDSVKGRFTISRDNAKNSLYLQMNSLRAEDTAVYYCAREGGWFGELAFDYWGQGTLVTVSSGGGGSGGGGSGGGGSGGGGSEIVLTQSPGTLSLSPGERATLSCRASQRVSSSYLAWYQQKPGQAPRLLIYDASSRATGIPDRFSGSGSGTDFTLTISRLEPEDFAVYYCQQYGSLPWTFGQGTKVEIK
light: not shown

Target: BTN3A expressed at the cell surface (human), O00481
Sequence (O00481 30-513): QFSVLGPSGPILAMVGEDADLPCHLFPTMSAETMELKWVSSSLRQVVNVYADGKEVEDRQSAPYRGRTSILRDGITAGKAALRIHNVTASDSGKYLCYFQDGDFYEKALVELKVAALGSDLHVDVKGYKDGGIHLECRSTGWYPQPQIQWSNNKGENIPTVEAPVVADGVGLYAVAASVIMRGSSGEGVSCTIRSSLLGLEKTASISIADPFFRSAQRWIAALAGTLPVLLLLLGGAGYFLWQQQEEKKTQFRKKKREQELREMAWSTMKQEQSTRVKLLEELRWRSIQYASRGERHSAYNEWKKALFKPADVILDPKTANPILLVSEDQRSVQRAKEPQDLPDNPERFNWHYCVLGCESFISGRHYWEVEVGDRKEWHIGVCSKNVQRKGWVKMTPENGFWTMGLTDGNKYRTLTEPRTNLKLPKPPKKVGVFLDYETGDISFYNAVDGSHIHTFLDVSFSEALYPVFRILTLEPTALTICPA
Experiment: cell-based or functional assay

| Jurkat-Vy9Vo2 TCR MOP activation at 0.5 nM (fold-change to medium) | Jurkat-Vy9Vo2 TCR MOP activation at 5 nM (fold-change to medium) | Binder |
| --- | --- | --- |
| 1.1 | 1.1 | B1 |
| 12.2 | 9.8 | B2 |
| 13.6 | 10.7 | B3 |
